According to PMC11355779:

Experiments:
[1] = biological target: ClC-3c, C-terminally GFP-tagged (mouse)
[2] = biological target: ClC-3c, C-terminally GFP-tagged (mouse); assay: FRET or BRET; FLIM-FRET in co-transfected HEK293T cells 24 h after transfection; GFP donor (488 nm), mCherry acceptor; efficiency from the donor lifetime (phasor plot) against donor-only cells

Chain of ClC-3c, C-terminally GFP-tagged (mouse) (P51791 whole entry): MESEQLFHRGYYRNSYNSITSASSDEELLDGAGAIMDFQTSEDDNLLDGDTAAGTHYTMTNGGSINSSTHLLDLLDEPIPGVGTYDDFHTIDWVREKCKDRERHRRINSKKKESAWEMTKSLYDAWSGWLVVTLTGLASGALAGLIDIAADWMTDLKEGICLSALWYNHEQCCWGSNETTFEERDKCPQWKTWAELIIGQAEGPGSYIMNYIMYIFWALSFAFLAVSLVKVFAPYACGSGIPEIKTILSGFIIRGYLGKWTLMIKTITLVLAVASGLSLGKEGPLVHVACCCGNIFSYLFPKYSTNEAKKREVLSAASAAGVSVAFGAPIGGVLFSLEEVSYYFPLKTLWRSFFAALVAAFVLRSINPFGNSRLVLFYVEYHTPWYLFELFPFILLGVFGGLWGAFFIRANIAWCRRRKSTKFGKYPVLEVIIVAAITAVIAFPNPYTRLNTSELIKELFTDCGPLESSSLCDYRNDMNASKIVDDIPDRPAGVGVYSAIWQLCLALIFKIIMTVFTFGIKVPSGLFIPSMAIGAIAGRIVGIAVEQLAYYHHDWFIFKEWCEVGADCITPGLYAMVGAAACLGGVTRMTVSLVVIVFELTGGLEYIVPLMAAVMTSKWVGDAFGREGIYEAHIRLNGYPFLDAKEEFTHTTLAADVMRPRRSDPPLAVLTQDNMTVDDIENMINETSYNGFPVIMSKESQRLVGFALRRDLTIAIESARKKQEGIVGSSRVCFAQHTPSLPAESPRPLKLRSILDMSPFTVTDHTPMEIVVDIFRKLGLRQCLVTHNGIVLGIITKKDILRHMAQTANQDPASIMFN

fast time constant of ClC-3 current activation in HEK cells co-transfected with TMEM9B (double exponential fit, 500 ms pulses) [1]: 21 ms
reduction of ClC-3 activity (whole-cell currents) in HEK cells by co-expression of TMEM9B [1]: 70%
slow time constant of ClC-3 current activation in HEK cells co-transfected with TMEM9B (double exponential fit, 500 ms pulses) [1]: 120 ms
FRET efficiency [2]: 0.17
Substance: TMEM9 Domain Family Member B (TMEM9B), C-terminally mCherry-tagged (from UniProt Q9JJR8 35-199) (natural protein)
